In paper PMC5344783 (Molecular microbiology, 2017):

B1: bPBP2x-HA (enzyme)
chain: MKWTKRVIRYATKNRKSPAENRRRVGKSLSLLSVFVFAIFLVNFAVIIGTGTRFGTDLAKEAKKVHQTTRTVPAKRGTIYDRNGVPIAEDATSYNVYAVIDENYKSATGKILYVEKTQFNKVAEVFHKYLDMEESYVREQLSQPNLKQVSFGAKGNGITYANMMSIKKELEAAEVKGIDFTTSPNRSYPNGQFASSFIGLAQLHENEDGSKSLLGTSGMESSLNSILAGTDGIITYEKDRLGNIVPGTEQVSQRTMDGKDVYTTISSPLQSFMETQMDAFQEKVKGKYMTATLVSAKTGEILATTQRPTFDADTKEGITEDFVWRDILYQSNYEPGSTMKVMMLAAAIDNNTFPGGEVFNSSELKIADATIRDWDVNEGLTGGRTMTFSQGFAHSSNVGMTLLEQKMGDATWLDYLNRFKFGVPTRFGLTDEYAGQLPADNIVNIAQSSFGQGISVTQTQMIRAFTAIANDGVMLEPKFISAIYDPNDQTARKSQKEIVGNPVSKDAASLTRTNMVLVGTDPVYGTMYNHSTGKPTVTVPGQNVALKSGTAQIADEKNGGYLVGLTDYIFSAVSMSPAENPDFILYVTVQQPEHYSGIQLGEFANPILERASAMKDSLNLQTTAKALEQVSQQSPYPMPSVKDISPGDLAEELRRNLVQPIVVGTGTKIKNSSAEEGKNLAPNQQVLILSDKAEEVPDMYGWTKETAETLAKWLNIELEFQGSGSTVQKQDVRANTAIKDIKKITLTLGD
B2: bPBP2b-HA (enzyme)
chain: MRKFNSHSIPIRLNLLFSIVILLFMTIIGRLLYMQVLNKDFYEKKLASASQTKITSSSARGEIYDASGKPLVENTLKQVVSFTRSNKMTATDLKETAKKLLTYVSISSPNLTERQLADYYLADPEIYKKIVEALPSEKRLDSDGNRLSESELYNNAVDSVQTSQLNYTEDEKKEIYLFSQLNAVGNFATGTIATDPLNDSQVAVIASISKEMPGISISTSWDRKVLETSLSSIVGSVSSEKAGLPAEEAEAYLKKGYSLNDRVGTSYLEKQYEETLQGKRSVKEIHLDKYGNMESVDTIEEGSKGNNIKLTIDLAFQDSVDALLKSYFNSELENGGAKYSEGVYAVALNPKTGAVLSMSGIKHDLKTGELTPDSLGTVTNVFVPGSVVKAATISSGWENGVLSGNQTLTDQSIVFQGSAPINSWYTQAYGSFPITAVQALEYSSNTYMVQTALGLMGQTYQPNMFVGTSNLESAMEKLRSTFGEYGLGTATGIDLPDESTGFVPKEYSFANYITNAFGQFDNYTPMQLAQYVATIANNGVRVAPRIVEGIYGNNDKGGLGDLIQQLQPTEMNKVNISDSDMSILHQGFYQVAHGTSGLTTGRAFSNGALVSISGKTGTAESYVADGQQATNTNAVAYAPSDNPQIAVAVVFPHNTNLTNGVGPSIARDIINLYQKYHPMN
B3: FtsZ-Myc (natural protein)
chain: MTFSFDTAAAQGAVIKVIGVGGGGGNAINRMVDEGVTGVEFIAANTDVQALSSTKAETVIQLGPKLTRGLGAGGQPEVGRKAAEESEETLTEAISGADMVFITAGMGGGSGTGAAPVIARIAKDLGALTVGVVTRPFGFEGSKRGQFAVEGINQLREHVDTLLIISNNNLLEIVDKKTPLLEALSEADNVLRQGVQGITDLITNPGLINLDFADVKTVMANKGNALMGIGIGSGEERVVEAARKAIYSPLLETTIDGAEDVIVNVTGGLDLTLIEAEEASQIVNQAAGQGVNIWLGTSIDESMRDEIRVTVVATGVRQDRVEKVVAPQARSATNYRETVKPAHSHGFDRHFDMAETVELPKQNPRRLEPTQASAFGDWDLRRESIVRTTDSVVSPVERFEAPISQDEDELDTPPFFKNR
B4: aPBP2a-HA^4 (enzyme)
chain: MKLDKLFEKFLSLFKKETSELEDSDSTILRRSRSDRKKLAQVGPIRKFWRRYHLTKIILILGLSAGLLVGIYLFAVAKSTNVNDLQNALKTRTLIFDREEKEAGALSGQKGTYVELTDISKNLQNAVIATEDRSFYKNDGINYGRFFLAIVTAGRSGGGSTITQQLAKNAYLSQDQTVERKAKEFFLALELSKKYSKEQILTMYLNNAYFGNGVWGVEDASKKYFGVSASEVSLDQAATLAGMLKGPELYNPLNSVEDSTNRRDTVLQNMVAAGYIDKNQETEAAEVDMTSQLHDKYEGKISDYRYPSYFDAVVNEAVSKYNLTEEEIVNNGYRIYTELDQNYQANMQIVYENTSLFPRAEDGTFAQSGSVALEPKTGGVRGVVGQVADNDKTGFRNFNYATQSKRSPGSTIKPLVVYTPAVEAGWALNKQLDNHTMQYDSYKVDNYAGIKTSREVPMYQSLAESLNLPAVATVNDLGVDKAFEAGEKFGLNMEKVDRVLGVALGSGVETNPLQMAQAYAAFANEGLMPEAHFISRIENASGQVIASHKNSQKRVIDKSVADKMTSMMLGTFTNGTGISSSPADYVMAGKTGTTEAVFNPEYTSDQWVIGYTPDVVISHWLGFPTTDENHYLAGSTSNGAAHVFRNIANTILPYTPGSTFTVENAYKQNGIAPANTKRQVQTNDNSQTDDNLSDIRGRAQSLVDEASRAISDAKIKEKAQTIWDSIVNLFR
B5: EzrA-HA (natural protein)
chain: MSNGQLIYLMVAIAVILVLAYVVAIFLRKRNEGRLEALEERKEELYNLPVNDEVEAVKNMHLIGQSQVAFREWNQKWVDLSLNSFADIENNLFEAEGYNHSFRFLKASHQIDQIESQITLIEEDIAAIRNALADLEKQESKNSGRVLHALDLFEELQHRVAENSEQYGQALDEIEKQLENIQSEFSQFVTLNSSGDPVEAAVILDNTENHILALSHIVDRVPALVTTLSTELPDQLQDLEAGYRKLIDANYHFVETDIEARFHLLYEAFKKNQENIRQLELDNAEYENGQAQEEINALYDIFTREIAAQKVVENLLATLPTYLQHMKENNTLLGEDIARLNKTYLLPETAASHVRRIQTELESFEAAIVEVTSNQEEPTQAYSVLEENLEDLQTQLKDIEDEQISVSERLTQIEKDDINARQKANVYVNRLHTIKRYMEKRNLPGIPQTFLKLFFTASNNTEDLMVELEQKMINIESVTRVLEIATNDMEALETETYNIVQYATLTEQLLQYSNRYRSFDERIQEAFNEALDIFEKEFDYHASFDKISQALEVAEPGVTNRFVTSYEKTRETIRF
B6: MreC (natural protein)
chain: MNRFKKSKYVIIVFVTVLLVSALLATTYSSTIVTKLGDGISLVDRVVQKPFQWFDSVKSDLAHLTRTYNENESLKKQLYQLEVKSNEVESLKTENEQLRQLLDMKSKLQATKTLAADVIMRSPVSWKQELTLDAGRSKGASENMLAIANGGLIGSVSKVEENSTIVNLLTNTENADKISVKIQHGSTTIYGIIIGYDKENDVLKISQLNSNSDISAGDKVTTGGLGNFNVADIPVGEVVATTHSTDYLTREVTVKLSADTHNVDVIELVGNS

How the values were obtained:
Assay in all cases: co-IP
StkP-FLAG^2 = target: T1, StkP-FLAG^2 (Streptococcus pneumoniae (strain D39 …, UniProt Q8DNS0 1-659))
T1 sequence: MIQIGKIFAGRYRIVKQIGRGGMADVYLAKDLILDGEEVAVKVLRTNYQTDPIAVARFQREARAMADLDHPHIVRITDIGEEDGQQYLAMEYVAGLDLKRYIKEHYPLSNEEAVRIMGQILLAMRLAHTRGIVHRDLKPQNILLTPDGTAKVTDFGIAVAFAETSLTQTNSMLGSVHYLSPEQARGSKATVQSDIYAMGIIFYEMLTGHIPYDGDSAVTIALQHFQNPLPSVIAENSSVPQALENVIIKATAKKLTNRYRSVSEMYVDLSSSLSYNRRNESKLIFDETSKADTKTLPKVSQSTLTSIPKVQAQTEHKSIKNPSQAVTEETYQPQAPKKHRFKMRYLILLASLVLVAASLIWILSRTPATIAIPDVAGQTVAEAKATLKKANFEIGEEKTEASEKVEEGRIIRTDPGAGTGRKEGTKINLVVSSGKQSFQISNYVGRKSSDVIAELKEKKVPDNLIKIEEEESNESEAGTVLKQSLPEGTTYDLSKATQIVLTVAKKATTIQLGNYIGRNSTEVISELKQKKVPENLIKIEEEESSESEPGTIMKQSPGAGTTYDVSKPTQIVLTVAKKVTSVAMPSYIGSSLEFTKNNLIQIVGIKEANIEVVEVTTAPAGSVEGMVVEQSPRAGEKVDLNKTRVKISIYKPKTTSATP

GpsB-L-FLAG^3 = target: T2, GpsB-L-FLAG^3 (Streptococcus pneumoniae (strain D39 …, UniProt Q8DR57 1-109))
T2 sequence: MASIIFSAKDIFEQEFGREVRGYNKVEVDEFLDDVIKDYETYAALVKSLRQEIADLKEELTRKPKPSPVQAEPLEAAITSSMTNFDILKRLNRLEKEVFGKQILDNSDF

EzrA-L-FLAG^3 = target: T3, EzrA-L-FLAG^3 (Streptococcus pneumoniae (strain D39 …, UniProt Q8DQE5 1-575))
T3 sequence: B5 chain

Row | Binder | ratio of prey protein band, StkP-FLAG^2 bait to StkP^+ control (StkP-FLAG^2) [ratio] | ratio of prey protein band, GpsB-L-FLAG^3 bait to GpsB^+ control (GpsB-L-FLAG^3) [ratio] | ratio of prey protein band, EzrA-L-FLAG^3 bait to EzrA^+ control (EzrA-L-FLAG^3) [ratio]
1 | B1 | 3.4 | – | –
2 | B2 | 8.1 | 18.3 | –
3 | B3 | – | – | 15
4 | B4 | – | 4 | –
5 | B5 | – | 5.4 | –
6 | B6 | 8.5 | 6.2 | –
